Laboratory results: the nanobody polyreactivity screen of Harvey et al. (2022)

Assay: yeast display, Sf9 membrane polyspecificity reagent, FACS + sequencing; frameworks hold sequencing errors
Procedure, shortened: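 Nanobodies came from a synthetic yeast display library in Saccharomyces cerevisiae BJ5465, induced with galactose for 36–48 hours and stained for 1 hour at 4 °C with 10% biotinylated, detergent-solubilized Sf9 membrane reagent. Cells were enriched on streptavidin microbeads and then FACS-sorted, with low and high (top ~1%) gates set on anti-HA fluorescence for expression and streptavidin fluorescence for reagent binding. Each polyreactivity label reflects the gate a clone came from. Genes were amplified by colony PCR, sequenced by MiSeq 2 × 250 and filtered by CDR length.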

Sequence	polyreactivity (PSR sort gate)
QVQLVESGGGLVQAGGSLRLSCAASGLTFDSSAMGWYRQAPGTERELVAAISFSGGRTYYADSVKGRFTISRDTAKNTVYLQMNSLKPDDTAVYYCAAQLRYKYDYWGHGTQVTVSS	high polyreactivity
QVQLVESGGGLFQAGGSLRLSCAASGRIFYYNTMGWYRQAPGIERELVAGISTRGGRTYYADSVKGRFTISRDNAKNTVYLQMNSLKPEDTAVYYCAKQYGSYGRYYKYYYWGQGTQLTVSS	high polyreactivity
QVQLVESGGGLVQAGGSLRLSCAASGSIFAVYAMGWSRQAPGKERELVAAITTSGGSTYYADSVKGRFTISRDNAKNTVYLQMNSLKPEDTAVYYCAAYRGTLLTAYDYWGQGTQVTVSS	low polyreactivity
QVQLVESGGGLVQAGGSLSLSSDASGSPLFSDAMGWYRQAPGKEREFVAAISRRGRSTYYADSVKGRFTISRDNAKNSVYFQMNSLIPEDTAVYYCAARDSSYNWYGYWGQGTQVTVSS	high polyreactivity
QVQLVESGGGLVQAGGSLRLSCAASAFIFGHYAMGWYRQAPGKERELVAGINSSGGSTHYADSVKGRFTISRDNAKKTVYLQMNSLKPEDTAVYYCAVAARTRARVLYGYDYWGQGTQVTVSS	low polyreactivity
QVQLVESGGGLVQAGGSLRLICDASGRTFPPYAMGWYRQAPGKERELVAAISRRAGTTYYADSVKGRFTISRDNAKNTDYLQMNSLKPEDTAVYYCAADTPVWSGYWYDYWGQGTQVTVSS	low polyreactivity
QVQLVESGGGLVQAGGSLRLSCAASGRIFGYNAMGWYRQAPGKERELVAAISSSGGSTYYADSVKGRFTISRDNAKNTVYLQMNSLKPEDTAVYYCAARRVTRTTVYRYQYYYWGQGTQVTVSS	high polyreactivity
QVQLVESGGGLVQAGGSLRLSCAASGRIFEHNAMGWSRQAPGKEMEFVAAISSSGGSTYYADSVKGRFTISRDNAKNTVYLQMNSLKPEDTAVYYCNAGSTYYERNYWGQGTQVTVSS	low polyreactivity
QVQLVESGGGLVQAGGSLRLSCAASGSTLAVYAMGWYRQAPGKEREFVAAISWSGVSTYYADSVKGRFTISRDNAKNTVYLQMNSLKPEDTAVYYCAAKRVRALYGGSEGGYWGQGTQVTVSS	low polyreactivity
QVQLVESGGGLVQAGGSLRLTCAASGRIFIYYAMGWYRQAPGKERELVAAISWGGGRTYYADSVKGRFTISRDNAKNTVYLQINSLKPEDTAVYYCAAGVYTGQHEYDYWGQGTQVTVSS	low polyreactivity
QVQLVESGGGLVQAGGSLRLSCAASGSIFWVYVMGWYRQAPGKEREFVAAISSSGGRTYYADSVKGRFTISRDNAKNTVYLQMNRLKPEDTAVYYCAARRYWWYSASAMDYWGQGTQVTVSS	high polyreactivity
QVQLVESGGGLVQAGGSLRLSCAASGSIFTSYVMGWYRQAPGKERELVAAINSGGRTYYADSVKGRFTISRDNAKNTVYLQMNSLKPEDTAVYYCATDLLYYQYYSEYDYWGQGTQVTVSS	high polyreactivity
QVQLVESVGGLVQAGGSLRLSCAASGRIFRKYDMGWYRQAPGKERELVAAISGTGITYYADSVKGRFTISRDNAKNTVYLQMNSLKPEDTAVYYCARGSKPRAWSWAYPSATSIYDYWGQGTQVTVSS	low polyreactivity
QVQLVESGGGLVQAGGSLRLSCAASGRIFRGNVMGWYRQAPGKERELVAAINSGASSNYADSVKGRFTISRDNAKNTVYLQMNSLKPEDTAVYYCAKRGPRSYFQPCYDYWGQGTQVTVSS	high polyreactivity
QDQLVESGGGLVQAGGSLSLSCAASRFIYLTYAMGWSRQAPGKERELVAAISSRGGSTYYADSVKGRFTISRDNAKNTVYLQMNSLKPEDTAVYYCAYTRGKYDYWGQGTQVTVSS	high polyreactivity
QVQLVESGGGLVQAGGSLRLSCAASGSIFDLYTMGWYRQAPGTERELVAAISRSGGSTYYADSVKGRFTISRDNAKNTVYLQMNSLKPEDTAVYYCAARGPYRPPHGDAYYTYGYWGQGTQVTVSS	high polyreactivity
QVQLVESGGGLVQAGGSLRLSCAASGFTFSGYDMGWYRQAPGKERELVAGISSGGVSTTYADSVKGRFTISRDNAKNTVYLQMNSLKPEDTAVYYCSTSGPQYYSRNFDYWGQGTQVTVSS	low polyreactivity
PVQLVESGGGLVQAGGSLRLSCAASGRIFPSYAMGWYRQAPGKERELVATINGDGGSTYYADSVKGRFTISRDNAKNTVYLQMNSLKPEDTAVYYCAKRYPFAAEYDYWGQGTQVTVSS	low polyreactivity
QVQLVESGGGLVQAGGSLRLSCAASGRIFWDNAMGWYRQAPGKERELVAAISGSGGNTYYADSVKGRFTISRDNAKNTVYLQMNSLKPEDTAVYYCNAYGHYTKRYRYGGWFDYWGQGTQVTVSS	low polyreactivity
QVQLVESGGRLVQAGGTLRLSCAASGRNVGLYAMGWSRQAPGKERELVAAISSTGRTTYADSVKGRFTISRDNAKNNVYLQMNSLIPEVTAVYYCKADARSVCWYYYACLFDYWGQGTQGTVSS	low polyreactivity
LVQLVESGGGLVQAGGSLRLSCAASGSLFVVTAMGWYRQAPGKERELVAAFSSGGRTYYADSVKGRFTISRDNAKNTVYLQMNSVKPEDTAVYYCAAGGWRGHCYWGQGTQVTVSS	high polyreactivity
QVQLVESGGGLVQAGGSLRLSCAASGFTLGNYAMGWYRQAPGKERELVAVITSGGRTYYADSVKGRFTISRDNAKNTVYLQMNSLKPEDTAVYYCNTKVYYYYRAVVDFDYWGQGTQVTVSS	low polyreactivity

Sequence	polyreactivity (PSR sort gate)
QVQLVESGGGLVQAGGSLRLSCAASGRTYGWYAMGWYRQAPGKERELVAAIRSSGGRTHYADSVKGRFTISRDNAKNTVYLQMNSLKPEDTAVYYCAARYSAAYYWGQGTQVTVSS	high polyreactivity
QVQLVESGGGLVQAGGSLRLSCAASGSTFWANALGWYRQAPGKERELVAGITWNAGSTYYADSVKGRFTISRDNAKNTVYLQMNSLKPEDTGVYYCAAYYHFQGWGPGYNSWGQGTQVTVSS	low polyreactivity
QVQLVESGGGLVQAGGSLRLSCAASGATFSVNAMGWYRQAPGKEREWVAAISSTGSTKYADSVKGRFTISRDNAKNPVYLQMNSLKPEDTAVYCAASNADYEYYPFSVWYFSPYDYWGHGTQVTVSS	low polyreactivity
QVQIVESGGGLVQAAGSLRLSCAASGSTFQTYAMGWYRQAPGKERELVAAITSGGSTNYADSVKGRFTISRDNAKNTVYLQMNSLKPEDTAVSYCAVRQIYQTSDHRLQYDYWGQGTQVTVSS	low polyreactivity
QVQLVESGGGLVQAGGSLRLSCAASGLIFGFYAMGWYRQAPGKERELVAAINSGGITYYADSVKGRFTISRDNAKNTVYFQMNSLKPEDTAVYYCNKDSHISTAYDYWGQGTQVTVSS	low polyreactivity
QVQLVESGGGLVQAGGSLRLSCAASGGIFRSYAMGWYRQAPGKETELVAAISWSTVSTYADSVKGRFTISRDNAKNTVYLQMYSLKPEDSAVYYCAASPFEYCYYYYGLYKEYYYWGQGNQVTVSS	low polyreactivity
QVQLVETGGGLVQAGGSLRLSCAASGFIFYPYDMGWYRQAPGKERELVAAITQSGGSTYYADSVKGRFTISRDNAKNTVYLQMNSLKQVDTAVYYCAADYAVWHRGQVVEIYDYWGQGTQVTVSS	low polyreactivity
QVQIVESGGGLVQAGGSLRLSCAASGYIFYPYTMGWYRQAPVKERQLVAAITWSGSTYYADSVKGRFTISRDNAKNTVYLQMNSLKPEDTAVYYCARESDWWREFPYDYWGHGTQVTVSS	low polyreactivity
QVQPVESGGGLDQAGGSLRLSCAASGRILWSYAMGWYRQAPGKERELVAAIRTSGGSTYYADSVKGRFTISRDNAKNTVYLQMNSLKPEDTAVYYCAADRTLFSTVDYWGQGTQVTVSS	low polyreactivity
QVQLVESGGGLVQAGGSLRLSCAASGRTFHRYVMGWYRQAPGKERELVAAISKSGGRTYYADSVKGRFTISRDNAKNTVYLQMNSLKPEDTAVYYYNARTAAGALYDYWGQGTQVTVSS	high polyreactivity
QVQLVESGGGLVQAGGSLRLSCAASGGIFYSNGMGWYRQAPGKERELVAAITGGDITDYADSVKGRFTISRDNAKNTVYLQMNSLKPEDTAVYFCAVESYPPDYGPRFGSWGQGTQVTVSS	low polyreactivity
QVKLQESGDGLVQAGGSLRLSSAASGTIFSDYGMGGYRQAPGKERELLAGISDGCNTNYTDSVKGRFTISRDNAHRVSADEQPETGGYRGVLLRGSERWLLFFVYWGQGTQVTVSS	high polyreactivity
QVQLVESGGGLVQAGGSLRLSFAGSGYIFTSYAMRWYRQAPGKERQLVARINYSGGGTSYADSVKGRFTISRDNAKHTVYLQMNSLKQEDTAVYYCAARSYWFRPTKYNYWGQGTQVTVSS	high polyreactivity
QVQLVESGGGLVQAGGSLRLSCAASGRTFFRYGMGWYRQAPGKEREFVAAITRSGTTTYYADSVKGRFTISRDNAKNTVYLQMNSLKPEDTAVYYCAAQRAARVDGKSDYWGQGTQVTVTS	low polyreactivity
QFQLLESGGGLVQAGGSLRLSCAASGSIFRSNTMGWSRQAPGKAREFVAAISRRGSRTYADSVKGRFTISRDNAKNTVYLQMNSRKPEDTAVYYCAAERGYQAHPGQGDYWGQGTQVTVSA	high polyreactivity
QVQLVESGGGLVQAGGSLRLSCAASGPISAIYDMGWYRQAPGKEREVVAAISGGTSTYYADSVKGRFTISRDNAKNTVYLQMNSLKPEDTAVYYCNAEASSYHGVEDEYDYWGQGTQVTVSS	low polyreactivity
QVQLQESGGLVQAGGLRLSCAASGSVSYQEAMGWYRQAPGKERELVATISFGANTNYADSVKGRFTISRDNAKNTVYLHMNSRKPEDTAVYYCAAESLFDDYYGYWGQGTQVTVSS	low polyreactivity
QVQLVETGGGLVQAGGSLRLSCAGSGSTFTSYVMGWYRQAPGKERELVAAITSSGGDTYYADSVKGRFTISRDNAKNTVYLQMNSLKPEVTAVYYCATRSYYRSSYYRNRYPYDYWGQGTQVTVSS	low polyreactivity
QVQLVESGGGLVQAGGSLRLSCAASGSTFGLYARGWYRQAPGKERELVAAISGGRTYYADSVKGRFTISRDNAKNTVYLQMNSLKPEDTAVYYCAADYNYYWGQGTQVTVSS	high polyreactivity
QVPHVESGGGLVQAGGSLRLSSAASGFIHKSYTMGWYRQAPGKERELVAAISRSGASKYYAYSVKGRFTISRDNAKNTVYLQMNSLKPEDTAVYYCNRRRHNIGTGEYNYWGQGTQVTVSS	high polyreactivity
QVLLQESGGLVQAGCSLRMSCAASGSISTALSMGWYRQAPGKERELVSTISDGASTNYADSVKGRFTISRVNAKNTVYLQMNSLKPEDTAVYYCARYYFGNFGWGQGTQVTVSS	high polyreactivity
